In the experiment the target is ABI2, O04719-1.
ABI2, O04719-1, sequence (O04719 whole entry): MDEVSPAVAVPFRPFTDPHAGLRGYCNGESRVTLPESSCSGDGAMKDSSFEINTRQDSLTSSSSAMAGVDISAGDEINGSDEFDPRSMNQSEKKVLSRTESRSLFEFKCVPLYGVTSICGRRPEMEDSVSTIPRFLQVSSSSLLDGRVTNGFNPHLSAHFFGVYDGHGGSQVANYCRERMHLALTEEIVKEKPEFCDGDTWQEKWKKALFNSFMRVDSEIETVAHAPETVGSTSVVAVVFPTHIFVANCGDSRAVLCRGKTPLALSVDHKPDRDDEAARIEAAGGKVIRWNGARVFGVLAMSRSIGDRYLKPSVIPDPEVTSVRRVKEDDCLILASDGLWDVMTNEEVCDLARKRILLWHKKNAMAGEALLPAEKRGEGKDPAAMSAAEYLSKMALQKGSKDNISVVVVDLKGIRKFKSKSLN

Rac-like GTP-binding protein ARAC10 (Arabidopsis thaliana (Mouse-ear cress)), O82481 D123A, sequence (O82481 whole entry D123A): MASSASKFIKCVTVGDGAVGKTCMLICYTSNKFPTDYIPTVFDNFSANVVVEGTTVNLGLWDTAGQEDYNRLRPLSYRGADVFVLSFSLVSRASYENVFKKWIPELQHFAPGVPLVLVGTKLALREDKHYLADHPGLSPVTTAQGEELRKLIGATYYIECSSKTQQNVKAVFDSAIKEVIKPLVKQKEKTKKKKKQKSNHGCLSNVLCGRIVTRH

Regarding “Rac-like GTP-binding protein ARAC10 (Arabidopsis thaliana (Mouse-ear cress)), O82481 D123A”, the “effect of a mutation on the interaction” value is “disrupting interaction strength”.
